{"source": "patent US20020102256A1", "about": "(ZymoGenetics, published 2002)", "test_in_all_cases": "cell-based or functional assay", "key": {"[1]": {"biological_target": "T1, Activated human C1s (Calbiochem-Novabiochem Corporation) (human) (UniProt P09871)", "T1 sequence (looked up)": "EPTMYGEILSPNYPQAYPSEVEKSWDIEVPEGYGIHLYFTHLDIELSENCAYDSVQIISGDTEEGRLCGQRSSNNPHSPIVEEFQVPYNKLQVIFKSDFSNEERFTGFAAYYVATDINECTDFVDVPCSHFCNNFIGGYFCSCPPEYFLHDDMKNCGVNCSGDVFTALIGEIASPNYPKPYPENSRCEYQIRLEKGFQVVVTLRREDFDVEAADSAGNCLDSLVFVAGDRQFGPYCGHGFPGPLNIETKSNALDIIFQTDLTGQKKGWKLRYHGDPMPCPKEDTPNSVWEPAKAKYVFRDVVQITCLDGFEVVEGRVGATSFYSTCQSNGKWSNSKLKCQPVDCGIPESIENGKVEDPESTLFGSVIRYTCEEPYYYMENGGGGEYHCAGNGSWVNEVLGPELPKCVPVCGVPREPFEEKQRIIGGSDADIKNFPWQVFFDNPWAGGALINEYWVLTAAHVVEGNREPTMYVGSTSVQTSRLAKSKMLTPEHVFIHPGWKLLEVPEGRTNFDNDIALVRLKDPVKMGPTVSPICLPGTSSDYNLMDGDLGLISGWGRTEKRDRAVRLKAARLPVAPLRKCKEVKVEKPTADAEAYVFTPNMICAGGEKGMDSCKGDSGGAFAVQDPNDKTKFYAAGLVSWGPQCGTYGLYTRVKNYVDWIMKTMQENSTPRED"}, "[2]": {"biological_target": "T2, Activated human C1s (Calbiochem-Novabiochem Corporation) (human, UniProt P09871 16-688)", "T2 sequence (looked up)": "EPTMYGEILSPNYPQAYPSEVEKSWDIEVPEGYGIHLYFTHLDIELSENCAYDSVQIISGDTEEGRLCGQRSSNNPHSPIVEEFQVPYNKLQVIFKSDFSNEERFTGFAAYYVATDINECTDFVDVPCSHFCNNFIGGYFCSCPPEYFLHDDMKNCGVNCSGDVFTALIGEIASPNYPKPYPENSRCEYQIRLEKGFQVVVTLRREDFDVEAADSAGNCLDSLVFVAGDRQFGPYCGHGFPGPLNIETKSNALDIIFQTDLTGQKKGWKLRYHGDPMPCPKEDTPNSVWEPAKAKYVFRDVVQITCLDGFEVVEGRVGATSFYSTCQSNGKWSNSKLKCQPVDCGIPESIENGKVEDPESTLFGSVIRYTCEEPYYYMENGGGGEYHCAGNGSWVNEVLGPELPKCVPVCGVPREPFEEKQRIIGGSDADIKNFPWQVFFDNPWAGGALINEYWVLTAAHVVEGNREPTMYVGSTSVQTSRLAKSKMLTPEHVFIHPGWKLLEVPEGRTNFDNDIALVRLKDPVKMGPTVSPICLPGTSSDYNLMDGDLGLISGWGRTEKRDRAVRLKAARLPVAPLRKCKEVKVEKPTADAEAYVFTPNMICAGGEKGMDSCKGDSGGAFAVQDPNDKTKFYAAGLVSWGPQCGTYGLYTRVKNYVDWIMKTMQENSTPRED"}, "[3]": {"biological_target": "T2, Activated human C1s …", "remark": "listed apart in the source"}}, "note": "“And” between values parts separate entries of the source, which are not always exact repeats. Equal values may be shown once.", "data": [{"binder": "Recombinant BD001 expressed in Baculovirus (protein, glycosylation at Asn23 (fucosylated complex-type core); sulfation of at least one of Tyr117, Tyr119 and Tyr121 (tyrosine sulfation at the C-terminus on three tyrosine residues)) AKKKLPKCQKQEDCGSWDLKCNNVTKKCECRNQVCGRGCPKERYQRDKYGCRKCLCKGCDGFKCRLGCTYGFKTDKKGCEAFCTCNTKETACVNIWCTDPYKCNPESGRCEDPNEEYEYDYE", "values": [{"measurement": "IC50 (nM), C1s enzyme assay", "setting": "[1]", "value": 2.5, "unit": "nM"}, {"measurement": "IC50, C1s enzyme assay (decrease in Vmax of Pefa-C1E cleavage)", "setting": "[1]", "value": 5.2, "unit": "nM"}]}, {"binder": "BD001 protein isolated from Pichia methanolica (protein, lacks tyrosine sulfation at the C-terminus and N-glycosylation) AKKKLPKCQKQEDCGSWDLKCNNVTKKCECRNQVCGRGCPKERYQRDKYGCRKCLCKGCDGFKCRLGCTYGFKTDKKGCEAFCTCNTKETACVNIWCTDPYKCNPESGRCEDPNEEYEYDYE", "values": [{"measurement": "IC50, C1s enzyme assay (decrease in Vmax of Pefa-C1E cleavage)", "setting": "[1]", "value": 44, "unit": "nM"}, {"measurement": "fold decrease in activity in bioassays compared with the baculovirus-expressed material", "setting": "[1]", "value": 10, "unit": "fold"}, {"measurement": "fold less active than the baculovirus material, C1s enzyme assay", "setting": "[1]", "value": 8, "unit": "fold"}]}, {"binder": "BD001 isolated from tissue (protein, glycosylation at Asn23 (fucosylated complex-type core); sulfation of at least one of Tyr117, Tyr119 and Tyr121) AKKKLPKCQKQEDCGSWDLKCNNVTKKCECRNQVCGRGCPKERYQRDKYGCRKCLCKGCDGFKCRLGCTYGFKTDKKGCEAFCTCNTKETACVNIWCTDPYKCNPESGRCEDPNEEYEYDYE", "values": [{"measurement": "IC50 (nM), C1s enzyme assay", "setting": "[1]", "value": "4 nM and 4.7 nM"}]}, {"binder": "Deglycosylated recombinant BD001 (protein, glycan at Asn23 removed with PNGase F; sulfation of at least one of Tyr117, Tyr119 and Tyr121) AKKKLPKCQKQEDCGSWDLKCNNVTKKCECRNQVCGRGCPKERYQRDKYGCRKCLCKGCDGFKCRLGCTYGFKTDKKGCEAFCTCNTKETACVNIWCTDPYKCNPESGRCEDPNEEYEYDYE", "values": [{"measurement": "IC50 (nM), C1s enzyme assay", "setting": "[1]", "value": 2.86, "unit": "nM"}]}, {"binder": "Desulfated recombinant BD001 (protein, sulfate groups removed from Tyr117/Tyr119/Tyr121 with aryl sulfatase; glycosylation at Asn23) AKKKLPKCQKQEDCGSWDLKCNNVTKKCECRNQVCGRGCPKERYQRDKYGCRKCLCKGCDGFKCRLGCTYGFKTDKKGCEAFCTCNTKETACVNIWCTDPYKCNPESGRCEDPNEEYEYDYE", "values": [{"measurement": "IC50 (nM), C1s enzyme assay", "setting": "[1]", "value": 36, "unit": "nM"}]}, {"binder": "Deglycosylated and cleaved recombinant BD001 (other, sulfation of at least one of Tyr117, Tyr119 and Tyr121; glycan at Asn23 removed with PNGase F) chain 1: AKKKLPKCQKQEDCGSWDLKCNNVTKKCECRNQVCGRGCPKERYQRDKYGCRKCLCKGCDGFKCR chain 2: LGCTYGFKTDKKGCEAFCTCNTKETACVNIWCTDPYKCNPESGRCEDPNEEYEYDYE", "values": [{"measurement": "IC50 (nM), C1s enzyme assay", "setting": "[2]", "value": 21.9, "unit": "nM"}]}, {"binder": "Desulfated and cleaved recombinant BD001 (other, sulfate groups removed from Tyr117/Tyr119/Tyr121 with aryl sulfatase; glycosylation at Asn23 (fucosylated complex-type core)) chain 1: AKKKLPKCQKQEDCGSWDLKCNNVTKKCECRNQVCGRGCPKERYQRDKYGCRKCLCKGCDGFKCR chain 2: LGCTYGFKTDKKGCEAFCTCNTKETACVNIWCTDPYKCNPESGRCEDPNEEYEYDYE", "values": [{"measurement": "IC50 (nM), C1s enzyme assay", "setting": "[2]", "value": 558, "unit": "nM"}]}, {"binder": "Cleaved recombinant BD001 (other, sulfation of at least one of Tyr117, Tyr119 and Tyr121; glycosylation at Asn23 (fucosylated complex-type core)) chain 1: AKKKLPKCQKQEDCGSWDLKCNNVTKKCECRNQVCGRGCPKERYQRDKYGCRKCLCKGCDGFKCR chain 2: LGCTYGFKTDKKGCEAFCTCNTKETACVNIWCTDPYKCNPESGRCEDPNEEYEYDYE", "values": [{"measurement": "IC50 (nM), C1s enzyme assay", "setting": "[2]", "value": 19.8, "unit": "nM"}, {"measurement": "fold higher IC50 than the matched, intact form, C1s enzyme assay", "setting": "[3]", "value": "~10", "unit": "fold"}]}]}
